Reference: patent US20160145322A1 (CRUCELL HOLLAND B V, published 2016)

What was measured:
[1] = target: T1, G protein of RSV A/Long (ATCC Cat. No. VR-26), on virus (Respiratory syncytial virus A/Long, UniProt P20895 1-298); assay: cell-based or functional assay
T1 sequence (looked up): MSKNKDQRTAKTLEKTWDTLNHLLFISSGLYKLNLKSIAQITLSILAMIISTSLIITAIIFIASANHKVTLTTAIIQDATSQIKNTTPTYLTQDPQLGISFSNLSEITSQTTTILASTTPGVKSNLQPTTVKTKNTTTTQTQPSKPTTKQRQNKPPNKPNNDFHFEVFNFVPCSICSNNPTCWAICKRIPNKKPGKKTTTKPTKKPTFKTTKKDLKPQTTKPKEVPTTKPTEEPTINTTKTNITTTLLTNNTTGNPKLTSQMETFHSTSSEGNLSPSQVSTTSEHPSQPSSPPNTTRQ

[2] = target: G protein of RSV B/18537 (ATCC Cat. No. VR-1580), on virus (Respiratory syncytial virus B/18537); assay: cell-based or functional assay
[3] = target: T2, Recombinant RSV attachment protein (G protein) corresponding to RSV B/B1 (Respiratory syncytial virus B/B1, UniProt O36633 65-299); assay: ELISA, coated recombinant protein
T2 construct: also called RSV Gb; Gb
T2 sequence: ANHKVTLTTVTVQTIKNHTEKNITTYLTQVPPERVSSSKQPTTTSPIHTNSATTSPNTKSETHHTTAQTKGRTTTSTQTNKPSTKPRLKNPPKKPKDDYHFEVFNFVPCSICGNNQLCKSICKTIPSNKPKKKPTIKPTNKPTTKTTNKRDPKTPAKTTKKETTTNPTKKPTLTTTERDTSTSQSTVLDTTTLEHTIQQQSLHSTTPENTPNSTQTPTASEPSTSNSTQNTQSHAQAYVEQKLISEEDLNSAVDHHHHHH

[4] = target: T3, Sym-1705 (RSV-G type A central region peptide 145-201) (Respiratory syncytial virus type A, not fully specified; N-terminal biotin); assay: Octet Red384, streptavidin tips with biotinylated peptide
T3 construct: Synthetic peptide
T3 peptide: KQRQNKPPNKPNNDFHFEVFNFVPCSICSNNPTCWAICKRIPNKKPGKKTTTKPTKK

[5] = target: T4, Sym-1706 (RSV G central conserved domain (CCD) peptide, type A 145-184) (Respiratory syncytial virus type A, N-terminal biotin); assay: as above
T4 construct: Synthetic peptide, C-terminally truncated against Sym-1705
T4 peptide: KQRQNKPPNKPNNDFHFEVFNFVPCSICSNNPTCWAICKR

[6] = target: T5, Sym-1788 (RSV-G type B central region peptide 145-201) (Respiratory syncytial virus type B, N-terminal biotin); assay: as above
T5 construct: Synthetic peptide
T5 peptide: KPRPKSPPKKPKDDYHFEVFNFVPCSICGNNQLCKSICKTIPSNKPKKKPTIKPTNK

[7] = target: T6, Sym-1789 (RSV-G type B central region peptide 145-184) (Respiratory syncytial virus type B, N-terminal biotin); assay: as above
T6 construct: Synthetic peptide, C-terminally truncated against Sym-1788
T6 peptide: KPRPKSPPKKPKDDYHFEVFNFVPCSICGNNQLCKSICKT

[8] = target: T3, Sym-1705 (RSV-G type A central region …); assay: ELISA, antibody titrated on biotinylated peptide on avidin plate
[9] = target: T4, Sym-1706 (RSV G central conserved …); assay: as above
[10] = target: T5, Sym-1788 (RSV-G type B central region …); assay: as above
[11] = target: T6, Sym-1789 (RSV-G type B central region …); assay: as above

B1: CB030.1 (antibody, V domains shown)
VH: QVQLVQSGAEMKRPGSSVKVSCKASGGTFSTFAINWVRQAPGQGFEWMGGVIPGFDSANYAQKFQGRLTMSADESTSTVYMELSSLRSDDTAVYYCAGNSGYCSGDSCAPNWGPGTLVTVSS
VL: DIVMTQSPLSLPVTPGEPASISCRSSQSLVHSNGYSYLDWYLQKPGQSPQLLIYLGSNRPSGVPDRFSGSGSGTDFTLKISRVEAEDVGVYFCMQNLQTPTFGGGTKVEIK
notes: Tested as human IgG from the pCP9-kappa vector
[1]
  Neutralization IC50, plaque reduction assay, RSV A/Long: 0.037 mg/L
[2]
  Neutralization IC50 (ng/mL), plaque reduction assay, RSV B/18537: 18.3 ng/mL
[3]
  binding result: binds
[4]
  Binding (Octet) [RU]: 0.47 RU
[5]
  Binding (Octet) [RU]: 0.53 RU
[6]
  Binding (Octet) [RU]: 0.73 RU
[7]
  Binding (Octet) [RU]: 1.36 RU
[8]
  IC50: ~0.02 mg/L
[9]
  IC50: ~0.02 mg/L
[10]
  IC50: ~0.02 mg/L
[11]
  IC50: ~0.02 mg/L
